Source: article PMC3365582

Molecular target: PaiB transcriptional regulator from Geobacillus stearothermophilus (Geobacillus stearothermophilus)
Assay: crystal structure

- stoichiometry N: 2
Substance: PaiB transcriptional regulator from Geobacillus stearothermophilus (natural protein)
